Reference: the Immune Epitope Database (IEDB)

Legend:
[1] = biological target: HLA-A*30:01; test: IEDB peptide-MHC binding, purified MHC/competitive/radioactivity; ≥ and ≤ were set here for values at or beyond the usual limits of such assays; conditions: source organism: Mus musculus
[2] = biological target: HLA-A*66:01; test: as above
[3] = biological target: HLA-A*03:01; test: as above
[4] = biological target: HLA-A*68:01; test: as above
[5] = biological target: HLA-A*33:01; test: as above
[6] = biological target: HLA-A*31:01; test: as above
[7] = biological target: HLA-A*11:01; test: as above
[8] = biological target: HLA-B*42:01; test: as above
[9] = biological target: HLA-B*07:02; test: as above
[10] = biological target: HLA-B*53:01; test: as above
[11] = biological target: HLA-A*30:01; test: IEDB peptide-MHC binding, purified MHC/competitive/radioactivity; filed as Kd, often an IC50 or EC50 that approximates it; ≥ and ≤ were set here for values at or beyond the usual limits of such assays; conditions: source organism: Homo sapiens
[12] = biological target: HLA-A*11:01; test: as above; conditions: source organism: Mus musculus
[13] = biological target: HLA-A*33:01; test: as above; conditions: source organism: Homo sapiens
[14] = biological target: HLA-B*35:01; test: as above; conditions: source organism: Mus musculus
[15] = biological target: HLA-B*54:01; test: as above; conditions: source organism: Mus musculus
[16] = biological target: HLA-B*51:01; test: as above; conditions: source organism: Mus musculus
[17] = biological target: HLA-B*35:03; test: IEDB peptide-MHC binding, purified MHC/competitive/radioactivity; ≥ and ≤ were set here for values at or beyond the usual limits of such assays; conditions: source organism: Mus musculus
[18] = biological target: HLA-A*66:01; test: IEDB peptide-MHC binding, purified MHC/competitive/radioactivity; filed as Kd, often an IC50 or EC50 that approximates it; ≥ and ≤ were set here for values at or beyond the usual limits of such assays; conditions: source organism: Mus musculus

AINSEMFLR
IC50 [1]: 49.8 µM
IC50 ([2]; source organism: Mus musculus): 4.55 µM
IC50 ([3]; source organism: Mus musculus): 0.428 µM
IC50 ([4]; source organism: Mus musculus): 0.109 µM
IC50 ([5]; source organism: Mus musculus): 1.08 µM
IC50 ([6]; source organism: Mus musculus): 0.067 µM
IC50 ([7]; source organism: Mus musculus): 0.209 µM

GPGAGSLQPLAL
IC50 ([8]; source organism: Homo sapiens): 6.07 µM
IC50 ([9]; source organism: Homo sapiens): 0.462 µM
IC50 ([10]; source organism: Homo sapiens): 15.5 µM

LALEGSLQKR
Kd [11]: ≥ 50 µM
IC50 ([2]; source organism: Homo sapiens): 0.515 µM
IC50 ([3]; source organism: Homo sapiens): 17.5 µM
IC50 ([4]; source organism: Homo sapiens): 0.066 µM
IC50 ([5]; source organism: Homo sapiens): 3.27 µM
IC50 ([6]; source organism: Homo sapiens): 38.4 µM
IC50 ([7]; source organism: Homo sapiens): 34.5 µM

LALEVARQKR
Kd [12]: ≥ 50 µM
IC50 [1]: 43 µM
IC50 ([2]; source organism: Mus musculus): 13 µM
IC50 ([3]; source organism: Mus musculus): 43.6 µM
IC50 ([4]; source organism: Mus musculus): 12.6 µM
IC50 ([5]; source organism: Mus musculus): 9.14 µM
IC50 ([6]; source organism: Mus musculus): 10.8 µM

PLALEGSLQ
Kd [11]: ≥ 50 µM
Kd [13]: ≥ 50 µM
IC50 ([2]; source organism: Homo sapiens): 48.5 µM
IC50 ([3]; source organism: Homo sapiens): 20.9 µM
IC50 ([4]; source organism: Homo sapiens): 41.5 µM
IC50 ([6]; source organism: Homo sapiens): 39.4 µM
IC50 ([7]; source organism: Homo sapiens): 37.1 µM

SPGDLQTLAL
Kd [14]: ≥ 50 µM
Kd [15]: ≥ 50 µM
Kd [16]: ≥ 50 µM
IC50 ([8]; source organism: Mus musculus): 0.035 µM
IC50 ([9]; source organism: Mus musculus): 0.0044 µM
IC50 ([10]; source organism: Mus musculus): 11 µM
IC50 [17]: 16.1 µM

TLALEVARQK
Kd [18]: ≥ 50 µM
IC50 [1]: 23.3 µM
IC50 ([3]; source organism: Mus musculus): 0.605 µM
IC50 ([4]; source organism: Mus musculus): 13.4 µM
IC50 ([5]; source organism: Mus musculus): 25.5 µM
IC50 ([6]; source organism: Mus musculus): 13 µM
IC50 ([7]; source organism: Mus musculus): 3.33 µM
